Results: patent US20230038638A1, “COMPLEMENT FACTOR I-RELATED COMPOSITIONS AND METHODS” (published 2023)
Substitutions are numbered along the chain they refer to.

Columns and labels:
[1] = target: soluble human C3b (human) (UniProt P01024)
human C4b (human) [2] = target: T1, human C4b (human) (UniProt P0C0L5)
T1 sequence: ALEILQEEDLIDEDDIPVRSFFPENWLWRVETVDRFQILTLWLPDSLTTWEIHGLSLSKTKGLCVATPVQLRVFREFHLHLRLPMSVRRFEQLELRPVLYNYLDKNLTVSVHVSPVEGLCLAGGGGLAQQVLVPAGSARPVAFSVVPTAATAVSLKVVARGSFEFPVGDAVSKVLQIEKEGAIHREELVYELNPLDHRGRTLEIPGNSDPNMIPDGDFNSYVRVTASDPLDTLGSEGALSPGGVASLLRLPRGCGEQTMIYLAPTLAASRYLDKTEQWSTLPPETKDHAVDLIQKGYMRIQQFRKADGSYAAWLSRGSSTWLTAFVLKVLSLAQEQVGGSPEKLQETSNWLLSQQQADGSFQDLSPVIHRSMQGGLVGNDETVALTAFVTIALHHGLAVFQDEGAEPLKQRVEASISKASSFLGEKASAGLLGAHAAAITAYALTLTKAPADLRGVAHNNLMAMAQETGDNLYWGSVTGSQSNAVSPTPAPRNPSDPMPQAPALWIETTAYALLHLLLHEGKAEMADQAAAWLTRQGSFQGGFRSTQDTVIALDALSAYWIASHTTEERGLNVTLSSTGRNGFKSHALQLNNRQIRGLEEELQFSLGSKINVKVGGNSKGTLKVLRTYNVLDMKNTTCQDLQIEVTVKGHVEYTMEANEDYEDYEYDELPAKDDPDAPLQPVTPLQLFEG

[3] = target: soluble human C3b (human) (UniProt P01024); remark: listed apart in the source
human C4b (human) [4] = target: T2, human C4b (human) (UniProt P0C0L4)
T2 sequence: T1 sequence with T151A, G317D, L364P, S365C, I368L, H369D, S420N, A451V, R454L, A530S

Sequence of CFI-HSA wild type (enzyme) (chain): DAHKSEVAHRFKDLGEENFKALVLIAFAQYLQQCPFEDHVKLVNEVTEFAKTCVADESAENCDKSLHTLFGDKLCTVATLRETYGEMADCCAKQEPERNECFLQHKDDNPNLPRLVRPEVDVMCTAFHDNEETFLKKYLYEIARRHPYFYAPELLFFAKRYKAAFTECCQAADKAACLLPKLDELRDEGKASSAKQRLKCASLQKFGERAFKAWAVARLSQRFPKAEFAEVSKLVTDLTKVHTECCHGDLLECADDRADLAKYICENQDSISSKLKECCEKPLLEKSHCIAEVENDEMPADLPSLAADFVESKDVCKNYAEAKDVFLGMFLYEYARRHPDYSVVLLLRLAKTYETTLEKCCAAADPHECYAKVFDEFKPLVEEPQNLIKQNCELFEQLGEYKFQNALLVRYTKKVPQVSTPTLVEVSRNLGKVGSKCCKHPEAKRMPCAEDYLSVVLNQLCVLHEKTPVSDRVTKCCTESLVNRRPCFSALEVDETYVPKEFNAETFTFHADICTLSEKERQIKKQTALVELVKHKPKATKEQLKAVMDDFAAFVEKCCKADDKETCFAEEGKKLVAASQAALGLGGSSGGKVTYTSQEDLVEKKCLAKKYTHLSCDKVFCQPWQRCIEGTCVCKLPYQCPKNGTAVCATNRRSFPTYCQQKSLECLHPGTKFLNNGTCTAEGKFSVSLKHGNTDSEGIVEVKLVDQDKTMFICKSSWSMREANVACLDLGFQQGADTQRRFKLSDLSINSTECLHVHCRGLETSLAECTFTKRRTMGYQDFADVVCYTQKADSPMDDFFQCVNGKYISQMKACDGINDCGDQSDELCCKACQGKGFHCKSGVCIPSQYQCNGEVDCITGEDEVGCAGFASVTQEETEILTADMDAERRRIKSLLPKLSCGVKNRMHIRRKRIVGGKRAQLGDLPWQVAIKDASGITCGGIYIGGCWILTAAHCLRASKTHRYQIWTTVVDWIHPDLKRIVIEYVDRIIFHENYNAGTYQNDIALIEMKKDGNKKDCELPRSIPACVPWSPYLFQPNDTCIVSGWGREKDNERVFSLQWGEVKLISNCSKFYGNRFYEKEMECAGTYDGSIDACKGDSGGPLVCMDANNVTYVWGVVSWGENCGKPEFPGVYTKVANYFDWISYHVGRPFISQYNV

| Substance | iC3b Screen Ref Fold (fold of CFI-HSA wild type) [1] | C4b Screen Ref Fold (fold of CFI-HSA wild type) (human C4b (human) [2]) | iC3b EC50 [3] [nM] | C4c EC50 (human C4b (human) [4]) [nM] | C4c EC50 (nM) (human C4b (human) [4]) | iC3b Screen Ref Fold (fold vs CFI-HSA wild type) [1] | C4b Screen Ref Fold (fold vs CFI-HSA wild type) (human C4b (human) [2]) | iC3b Screen Ref Fold (fold of reference) [1] |
| --- | --- | --- | --- | --- | --- | --- | --- | --- |
| CFI-HSA variant E457G; N531G; D425K (enzyme) | 0.99 | 5.43 | 4.4 | 12.7 |  |  |  |  |
| CFI-HSA variant N531G; N422K (enzyme) | 2.43 | 4.68 | 5.2 | 42.6 |  |  |  |  |
| CFI-HSA variant P535G; E416A (enzyme) | 0.53 | 0.13 | 41.6 |  | > 1000 |  |  |  |
| CFI-HSA variant F537K (enzyme) |  |  | 40.2 |  | 890 | 1.28 | 0.3 |  |
| CFI-HSA variant Q467R (enzyme) |  |  | 27.1 |  | 399 | 0.59 | 0.48 |  |
| CFI-HSA variant E457G; E416A (enzyme) | 1.41 | 4.63 | 7.1 | 94.9 |  |  |  |  |
| CFI-HSA variant F537R (enzyme) |  |  | 29.1 |  | 645 | 1.08 | 0.16 |  |
| CFI-HSA variant K504H (enzyme) |  |  | 53.6 |  | 229 | 0.54 | 3.84 |  |
| CFI-HSA variant G556S (enzyme) | 0.55 | 1.53 | 29.7 | 180 |  |  |  |  |
| CFI-HSA wild type (enzyme) |  |  | 28.4 |  | 299 | 1 | 1 |  |
| CFI-HSA variant A502S; K504Q; F537K (enzyme) |  |  | 31.2 |  | 810 | 1.07 | 0.93 |  |
| CFI-HSA variant Y408L; P535G; D425K (enzyme) | 0.56 | 0 | 19.7 | > 1000 |  |  |  |  |
| WT; GGSSGG (SEQ ID NO: 6); CR1(ccp15-17) (enzyme) |  |  | 31.9 |  | 53.1 | 0.04 | 5.25 |  |
| CFI-HSA variant E416A (enzyme) |  |  | 12.8 |  | 425 | 1.08 | 1.15 |  |
| CFI-HSA variant Y408L; E457G; P535G; D425K (enzyme) | 0.04 | 2.13 | 5.2 | 46.5 |  |  |  |  |
| CFI-HSA variant K504L (enzyme) |  |  | 144 |  | > 1000 | 0.12 | 0.01 |  |
| CFI-HSA variant R557K (enzyme) |  |  | 99.9 |  | 266 | 0.28 | 3.09 |  |
| CFI-HSA variant T377G; E457G; E461Q (enzyme) |  |  | 4.5 |  | 14.9 |  |  |  |
| CFI-HSA variant L307S (enzyme) |  |  | 18.4 | 54.1 |  |  |  |  |
| CFI-HSA variant D425H (enzyme) |  |  | 10.7 | 123 |  |  |  |  |
| CFI-HSA variant D425W (enzyme) |  |  | 14.2 | 87.6 |  |  |  |  |
| CFI-HSA variant Y408L; E457G; E461Q; R462K; N531G; R557K (enzyme) |  |  | 24.6 |  | 17.3 |  |  |  |
| CFI-HSA variant N531G; P535A; R557A (enzyme) |  |  | 47.5 |  | 28.2 |  |  |  |
| CFI-HSA variant K504D (enzyme) |  |  | 53.1 |  | > 1000 |  |  | 0.17 |
| CFI-HSA variant E457G; N531G; WT; GGSSGG (SEQ ID NO: 6); CR1(ccp15-17) (enzyme) |  |  | 28.1 | 29.1 |  |  |  |  |
| CFI-HSA variant R557P (enzyme) |  |  | 288 |  | 96.3 |  |  |  |
| CFI-HSA variant N531G; E457G; F464Y (enzyme) |  |  | 7 | 16.4 |  |  |  |  |
| CFI-HSA variant E457G; N531G; E530Y (enzyme) |  |  | 5 |  | 13 |  |  |  |
| CFI-HSA variant D425Y (enzyme) |  |  | 14.3 | 112 |  |  |  |  |
| CFI-HSA variant E457G; N531G (enzyme) |  |  | 6.5 | 11.2 |  |  |  |  |

The remaining lines, values ahead:

| iC3b Screen Ref Fold (fold of CFI-HSA wild type) [1] | C4b Screen Ref Fold (fold of CFI-HSA wild type) (human C4b (human) [2]) | iC3b EC50 [3] [nM] | C4c EC50 (human C4b (human) [4]) [nM] | C4c EC50 (nM) (human C4b (human) [4]) | iC3b Screen Ref Fold (fold vs CFI-HSA wild type) [1] | C4b Screen Ref Fold (fold vs CFI-HSA wild type) (human C4b (human) [2]) | iC3b Screen Ref Fold (fold of reference) [1] | Substance |
| --- | --- | --- | --- | --- | --- | --- | --- | --- |
| 0.68 | 1.93 | 13.8 | 158 |  |  |  |  | CFI-HSA variant E457G; P535G (enzyme) |
| 1.51 | 5.49 | 5.2 | 32.6 |  |  |  |  | CFI-HSA variant E457G; N422K (enzyme) |
| 2.12 | 4.54 | 3.1 |  | 4.1 |  |  |  | CFI-HSA variant E457G; N531G; D425R; E416A (enzyme) |
|  |  | 26.7 |  | 640 | 0.96 | 0.36 |  | CFI-HSA variant A502S (enzyme) |
| 1.39 | 4.34 | 9.6 | 27.9 |  |  |  |  | CFI-HSA variant Y408L; E457G; N531G; P535G; P558S (enzyme) |
|  |  | 10.6 |  | 70.5 | 1.09 | 5.29 |  | CFI-HSA variant Y408L-N531G (enzyme) |
|  |  | 113 |  | 177 |  |  |  | CFI-HSA variant R557L (enzyme) |
|  |  | 20.4 | 60.1 |  |  |  |  | CFI-HSA variant N531G; P535A; GGSSGG (SEQ ID NO: 6); CR1(ccp15-17) (enzyme) |
|  |  | 6.9 | 23 |  |  |  |  | CFI-HSA variant Y408L; N531G; E457G; R462K (enzyme) |
|  |  | 217 |  | 324 |  |  |  | CFI-HSA variant R557T (enzyme) |
|  |  | 21.9 |  | 168 |  |  |  | CFI-HSA variant D549N (enzyme) |
|  |  | 36.6 |  | 61.8 |  |  |  | CFI-HSA variant E457G; E461Q; R557A (enzyme) |
|  |  | 14.3 | 44.4 |  |  |  |  | CFI-HSA variant E457G; N531G; P535G; WT; GGSSGG (SEQ ID NO: 6); CR1(ccp15-17) (enzyme) |
|  |  | 13.6 | 640 |  |  |  |  | CFI-HSA variant D425P (enzyme) |
|  |  | 36.7 | 60 |  |  |  |  | CFI-HSA variant N531G; WT; GGSSGG (SEQ ID NO: 6); CR1(ccp15-17) (enzyme) |
|  |  | 4.4 |  | 16.4 |  |  |  | CFI-HSA variant E457G; N531G; D425R; E530Y (enzyme) |
